Data on two molecules can be found in publication PMC11931385, “Structural and functional analysis of cancer-associated missense variants in the retinoblastoma protein pocket domain” (The Journal of Biological Chemistry, 2025).

No end group written: not given here. TMR = tetramethyl rhodamine dye

What all share (assay): fluorescence polarisation; 37 °C, after the 25 °C reading ramped over 7 min to 37 °C and 2 min incubation; unlabeled Rb^P against 1.5 nM TMR-E2F1^TD or 7.5 nM TMR-E7^LxCxE; 25 mM Tris pH 8.0, 200 mM NaCl, 1 mM DTT, 0.1% Tween-20; apparent Kd
Holding throughout (conditions): both partners purified
For orientation: Fluorescence polarisation rises when a labelled molecule tumbles more slowly, as on binding a larger partner.

One experiment has as its target T1, Rb^P E533K (human, UniProt P06400 380-788, E533K).
T1 construct: also called variant 22
T1 sequence (looked up): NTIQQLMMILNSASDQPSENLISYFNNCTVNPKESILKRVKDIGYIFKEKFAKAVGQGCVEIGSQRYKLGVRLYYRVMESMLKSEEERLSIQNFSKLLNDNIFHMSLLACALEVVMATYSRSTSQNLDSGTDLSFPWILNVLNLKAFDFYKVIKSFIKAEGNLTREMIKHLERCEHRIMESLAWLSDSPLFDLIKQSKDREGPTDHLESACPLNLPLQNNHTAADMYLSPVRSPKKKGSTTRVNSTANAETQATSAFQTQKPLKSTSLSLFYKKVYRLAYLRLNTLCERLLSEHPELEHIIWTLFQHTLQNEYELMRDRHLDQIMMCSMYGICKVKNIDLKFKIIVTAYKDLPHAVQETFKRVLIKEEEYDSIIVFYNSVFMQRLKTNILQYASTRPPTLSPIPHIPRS

For another experiment, the target named is T2, Rb^P L550I (human, UniProt P06400 380-788, L550I).
T2 construct: also called variant 27
T2 sequence (looked up): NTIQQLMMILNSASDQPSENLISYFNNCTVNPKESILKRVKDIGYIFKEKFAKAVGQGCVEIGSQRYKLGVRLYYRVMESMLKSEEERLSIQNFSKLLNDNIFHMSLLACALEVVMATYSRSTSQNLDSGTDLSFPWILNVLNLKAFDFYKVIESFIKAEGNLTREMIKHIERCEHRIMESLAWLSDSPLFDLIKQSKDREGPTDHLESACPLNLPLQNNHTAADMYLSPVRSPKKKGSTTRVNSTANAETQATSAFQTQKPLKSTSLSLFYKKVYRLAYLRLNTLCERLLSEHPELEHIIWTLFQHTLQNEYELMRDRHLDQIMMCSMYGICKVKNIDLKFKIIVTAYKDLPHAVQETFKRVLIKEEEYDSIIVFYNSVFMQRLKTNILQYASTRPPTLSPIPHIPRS

A further experiment deals with T3, Rb^P M695I (human, UniProt P06400 380-788, M695I).
T3 construct: also called variant 61
T3 sequence (looked up): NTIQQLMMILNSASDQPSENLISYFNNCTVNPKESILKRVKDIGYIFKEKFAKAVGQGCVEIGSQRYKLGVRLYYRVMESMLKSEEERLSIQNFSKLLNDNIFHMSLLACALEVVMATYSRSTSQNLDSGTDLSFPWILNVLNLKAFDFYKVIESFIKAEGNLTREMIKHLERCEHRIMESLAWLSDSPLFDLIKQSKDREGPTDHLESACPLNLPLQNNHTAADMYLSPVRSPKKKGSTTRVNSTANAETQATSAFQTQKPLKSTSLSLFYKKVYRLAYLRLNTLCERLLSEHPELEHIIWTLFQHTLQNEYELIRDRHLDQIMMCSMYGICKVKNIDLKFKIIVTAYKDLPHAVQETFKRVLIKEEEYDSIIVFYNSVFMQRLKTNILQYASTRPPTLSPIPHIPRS

The target in a further experiment is T4, Rb^P D697E (human, UniProt P06400 380-788, D697E).
T4 construct: also called variant 62
T4 sequence (looked up): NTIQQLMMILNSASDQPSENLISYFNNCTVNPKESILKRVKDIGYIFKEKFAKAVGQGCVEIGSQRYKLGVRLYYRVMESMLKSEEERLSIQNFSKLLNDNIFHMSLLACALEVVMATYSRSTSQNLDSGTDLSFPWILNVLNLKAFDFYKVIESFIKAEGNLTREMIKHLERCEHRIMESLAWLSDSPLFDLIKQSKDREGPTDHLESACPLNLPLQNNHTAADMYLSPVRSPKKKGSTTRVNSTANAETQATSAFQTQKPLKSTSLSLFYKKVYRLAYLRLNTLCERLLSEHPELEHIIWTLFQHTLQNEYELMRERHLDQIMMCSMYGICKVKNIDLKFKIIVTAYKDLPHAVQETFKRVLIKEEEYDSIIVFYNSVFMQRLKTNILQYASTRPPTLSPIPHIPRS

The target of another experiment is T5, Rb^P R741C (human, UniProt P06400 380-788, R741C).
T5 construct: also called variant 68
T5 sequence (looked up): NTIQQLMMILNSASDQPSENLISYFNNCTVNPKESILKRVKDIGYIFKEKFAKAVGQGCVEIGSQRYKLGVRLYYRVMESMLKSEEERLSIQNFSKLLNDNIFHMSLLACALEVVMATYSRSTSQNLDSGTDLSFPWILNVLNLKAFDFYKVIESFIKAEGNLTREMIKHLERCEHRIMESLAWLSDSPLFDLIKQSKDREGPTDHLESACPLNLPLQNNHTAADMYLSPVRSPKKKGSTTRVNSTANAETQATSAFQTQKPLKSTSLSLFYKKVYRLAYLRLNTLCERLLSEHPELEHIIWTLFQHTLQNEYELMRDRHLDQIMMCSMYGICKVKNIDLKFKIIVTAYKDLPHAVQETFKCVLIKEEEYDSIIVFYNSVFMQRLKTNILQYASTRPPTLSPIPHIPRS

B1: TMR-E2F1^TD, peptide of the E2F1 transactivation domain (peptide)
peptide: {TMR}-GEGIRDLFDCDFGDLTPLD
notes: also called E2F^TD; source: synthetic peptide, bought: GenScript
With B1, the Kd with Rb^P E533K came to 1800 nM; with Rb^P L550I it was 80 nM; with Rb^P M695I, 165 nM; with Rb^P D697E, 129 nM; in the experiment with Rb^P R741C, 64 nM.

B2: TMR-E7^LxCxE, LxCxE peptide of the E7 oncoprotein from HPV (peptide)
peptide: DLYCYEQLN
modifications: also: TMR label, position not given here
notes: source: synthetic peptide, bought: GenScript
Regarding B2, the Kd in the experiment with Rb^P E533K was 14 nM; with Rb^P L550I, 7 nM; in the experiment with Rb^P M695I, 93 nM; with Rb^P D697E, 46 nM; with Rb^P R741C, 23 nM.
